Usually pKd stands for the Kd on a negative log10 scale, so that one unit is a factor of ten. A lower pKd goes with a large Kd.

pKd: −log10 of the molar value.

The data set deals with Clp-GST (Xanthomonas oryzae pv. oryzae PXO99A). In words: MST. The settings on record: MST: 50 mM Tris pH 7.5, 150 mM NaCl, 10 mM MgCl2, 0.05% Tween 20, 25 C, buffer not given.

With xanfur promoter, FAM-labeled, the pKd is 9.16.

Values taken from paper PMC10714925.
